Laboratory results as given in patent publication US20230365662A1.
Where “and” joins values, the source holds several entries; their conditions need not be identical. Identical values can stand only once.

Target: HRgpA-6H (Porphyromonas gingivalis) (UniProt P28784)
Test: ELISA on coated HRgpA-6H

Chain of UniProt P28784 (P28784 228-991 limits assumed): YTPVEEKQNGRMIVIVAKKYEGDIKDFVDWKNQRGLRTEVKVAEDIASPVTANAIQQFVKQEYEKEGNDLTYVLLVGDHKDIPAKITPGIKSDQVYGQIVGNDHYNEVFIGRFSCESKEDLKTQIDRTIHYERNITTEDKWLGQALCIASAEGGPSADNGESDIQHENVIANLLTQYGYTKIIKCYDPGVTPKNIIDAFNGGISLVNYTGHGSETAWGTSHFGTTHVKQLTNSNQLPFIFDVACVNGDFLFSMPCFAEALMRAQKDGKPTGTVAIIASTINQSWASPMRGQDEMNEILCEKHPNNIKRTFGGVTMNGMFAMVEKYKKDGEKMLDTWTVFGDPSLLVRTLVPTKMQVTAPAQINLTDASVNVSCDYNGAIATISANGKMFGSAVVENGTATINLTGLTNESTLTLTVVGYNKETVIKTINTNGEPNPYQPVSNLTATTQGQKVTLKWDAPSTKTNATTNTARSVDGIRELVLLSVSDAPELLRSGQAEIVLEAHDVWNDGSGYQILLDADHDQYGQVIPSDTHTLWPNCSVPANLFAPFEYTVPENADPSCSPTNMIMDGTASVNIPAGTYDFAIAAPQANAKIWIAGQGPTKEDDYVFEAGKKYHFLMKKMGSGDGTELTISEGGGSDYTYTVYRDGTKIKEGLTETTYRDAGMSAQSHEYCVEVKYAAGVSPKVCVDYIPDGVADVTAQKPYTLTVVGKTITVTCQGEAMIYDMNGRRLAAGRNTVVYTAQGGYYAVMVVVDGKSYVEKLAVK

B1: KB001 mouse Fab FASEBA VH S61K (Fab, V domains shown)
VH: EVQLKQSGPGLVAPSQSLSITCTVSGFSLSIYSVHWVRQPPGKGLEWLGMIWGGGSSDYNKALKSRLSISKDNSKSQVFLKMNSLQTDDTAMYYCARNGNFYAMDYWGQGTSVTVSS
VL: QIVLTQSPAIMSASLGERVTMTCTASSSVSSSFLHWYQQKPGSSPQLWIYSTSNLASGVPARFSGSGSGTSYSLTISSMEAEDAATYYCHQYHHSPYIYTFGGGTKLEIK
- OD450nm: 0.49
- Ratio OD(Variant)/OD(WT): 0.993

B2: KB001 mouse Fab FASEBA VH A62Q (Fab, V domains shown)
VH: EVQLKQSGPGLVAPSQSLSITCTVSGFSLSIYSVHWVRQPPGKGLEWLGMIWGGGSSDYNSQLKSRLSISKDNSKSQVFLKMNSLQTDDTAMYYCARNGNFYAMDYWGQGTSVTVSS
VL: QIVLTQSPAIMSASLGERVTMTCTASSSVSSSFLHWYQQKPGSSPQLWIYSTSNLASGVPARFSGSGSGTSYSLTISSMEAEDAATYYCHQYHHSPYIYTFGGGTKLEIK
- OD450nm: 0.737 and 0.869
- Ratio OD(Variant)/OD(WT): 0.843 and 0.994

B3: KB001 mouse Fab FASEBA VH S61H (Fab, V domains shown)
VH: EVQLKQSGPGLVAPSQSLSITCTVSGFSLSIYSVHWVRQPPGKGLEWLGMIWGGGSSDYNHALKSRLSISKDNSKSQVFLKMNSLQTDDTAMYYCARNGNFYAMDYWGQGTSVTVSS
VL: QIVLTQSPAIMSASLGERVTMTCTASSSVSSSFLHWYQQKPGSSPQLWIYSTSNLASGVPARFSGSGSGTSYSLTISSMEAEDAATYYCHQYHHSPYIYTFGGGTKLEIK
- OD450nm: 0.469
- Ratio OD(Variant)/OD(WT): 0.95

B4: KB001 mouse Fab FASEBA VH A62N (Fab, V domains shown)
VH: EVQLKQSGPGLVAPSQSLSITCTVSGFSLSIYSVHWVRQPPGKGLEWLGMIWGGGSSDYNSNLKSRLSISKDNSKSQVFLKMNSLQTDDTAMYYCARNGNFYAMDYWGQGTSVTVSS
VL: QIVLTQSPAIMSASLGERVTMTCTASSSVSSSFLHWYQQKPGSSPQLWIYSTSNLASGVPARFSGSGSGTSYSLTISSMEAEDAATYYCHQYHHSPYIYTFGGGTKLEIK
- OD450nm: 0.721 and 0.799
- Ratio OD(Variant)/OD(WT): 0.825 and 0.914

B5: KB001 mouse Fab FASEBA VH A62G (Fab, V domains shown)
VH: EVQLKQSGPGLVAPSQSLSITCTVSGFSLSIYSVHWVRQPPGKGLEWLGMIWGGGSSDYNSGLKSRLSISKDNSKSQVFLKMNSLQTDDTAMYYCARNGNFYAMDYWGQGTSVTVSS
VL: QIVLTQSPAIMSASLGERVTMTCTASSSVSSSFLHWYQQKPGSSPQLWIYSTSNLASGVPARFSGSGSGTSYSLTISSMEAEDAATYYCHQYHHSPYIYTFGGGTKLEIK
- OD450nm: 0.813 and 0.785
- Ratio OD(Variant)/OD(WT): 0.93 and 0.898

B6: KB001 mouse Fab FASEBA VH S61L (Fab, V domains shown)
VH: EVQLKQSGPGLVAPSQSLSITCTVSGFSLSIYSVHWVRQPPGKGLEWLGMIWGGGSSDYNLALKSRLSISKDNSKSQVFLKMNSLQTDDTAMYYCARNGNFYAMDYWGQGTSVTVSS
VL: QIVLTQSPAIMSASLGERVTMTCTASSSVSSSFLHWYQQKPGSSPQLWIYSTSNLASGVPARFSGSGSGTSYSLTISSMEAEDAATYYCHQYHHSPYIYTFGGGTKLEIK
- OD450nm: 0.448
- Ratio OD(Variant)/OD(WT): 0.908

B7: KB001 mouse Fab FASEBA VH A62H (Fab, V domains shown)
VH: EVQLKQSGPGLVAPSQSLSITCTVSGFSLSIYSVHWVRQPPGKGLEWLGMIWGGGSSDYNSHLKSRLSISKDNSKSQVFLKMNSLQTDDTAMYYCARNGNFYAMDYWGQGTSVTVSS
VL: QIVLTQSPAIMSASLGERVTMTCTASSSVSSSFLHWYQQKPGSSPQLWIYSTSNLASGVPARFSGSGSGTSYSLTISSMEAEDAATYYCHQYHHSPYIYTFGGGTKLEIK
- OD450nm: 0.819 and 0.834 and 0.844
- Ratio OD(Variant)/OD(WT): 0.937 and 0.954 and 0.966

B8: KB001 mouse Fab FASEBA VH A62M (Fab, V domains shown)
VH: EVQLKQSGPGLVAPSQSLSITCTVSGFSLSIYSVHWVRQPPGKGLEWLGMIWGGGSSDYNSMLKSRLSISKDNSKSQVFLKMNSLQTDDTAMYYCARNGNFYAMDYWGQGTSVTVSS
VL: QIVLTQSPAIMSASLGERVTMTCTASSSVSSSFLHWYQQKPGSSPQLWIYSTSNLASGVPARFSGSGSGTSYSLTISSMEAEDAATYYCHQYHHSPYIYTFGGGTKLEIK
- OD450nm: 0.77 and 0.735
- Ratio OD(Variant)/OD(WT): 0.881 and 0.841
